From the RNAGym collection of RNA variant scans (doi:10.7554/elife.80360)

B1: HDV Ribozyme (parent)
chain: GGCCGGCAUGGUCCCAGCCUCCUCGCUGGCGCCGGCUGGGCAACAUUCCGAGGGGACCGUCCCCUCGGUAAUGGCGAAUGGGACCCA

Variants of: B1
Test: self-cleavage, relative activity (ratio to wild type); higher = more cleavage; co-transcriptional

Variant | self-cleavage
G35U G80C | 0.0567
G35A G52U | 0.513
C24A G31U | 0.0519
A51C G82C | 0.534
G25A A51U | 0.318
C4A U72G | 0.111
C58U A71U | 1.16
C3U G73C | 0.304
G11C A71C | 0.306
G53U C57G | 1.1
G10U G11C | 0.237
A42G G80A | 0.0997
C32U C58A | 1
C41G A45C | 0.166
U27C G67A | 0.886
C21G C48A | 0
C18A U69G | 0.232
G81A G82A | 0.201
G31C | 0.363
C19A A56C | 0.173
G73C G82U | 0.0707
U23C U47A | 1.03
C26G C58G | 0.906
A42U C66U | 0.61

Variant | self-cleavage
G59U G81A | 0.361
U23A C44U | 0.566
C7G C49U | 0.237
C13U A51G | 0.89
U23C C24A | 0.287
C36G C64A | 0.259
U9A G28U | 0.0898
G5A C36A | 0.0627
U23A A51C | 0.731
C14U G17A | 0.514
U23A G68C | 0.831
G2A C66G | 0.213
U65G G76C | 1.15
G5U C86A | 0.755
C32A C41A | 0.089
G6C A16U | 0.199
C32G C41U | 0.119
A45U G82U | 0.529
A43U A71U | 0.565
C36A G74C | 0.0997
A45G C64G | 0.591
G5C C49A | 0.178
C85U C86U | 0.895
C41G A43G | 0.262

Variant | self-cleavage
G35U U69C | 0.253
G25U U37C | 0.17
C26U A71G | 0.928
C30U U46G | 0.231
C33A C49U | 0.212
C15A G81C | 0.208
C4A C58G | 0.259
C4G C48U | 0.306
A56U C85A | 0.966
C30U U47G | 0.571
G68C A87G | 0.948
C49G A77U | 0.604
C19U U47A | 0.191
G40C U47A | 0.0845
C36G G55C | 0.0314
U23A G31C | 0.44
U9G C15U | 0.962
C33U U72G | 0.405
C32A G55U | 0.219
G52C C64A | 0.753
G40A A43G | 0.623
C19G C63G | 0.229
A56C C75U | 0.0723
G1U A83G | 0.461

Variant | self-cleavage
C33A C44U | 0.0707
C41A A45U | 0.872
U12A U27C | 0.35
G25U G74A | 0.0707
C7G U46A | 0
G6C U46A | 0
C21U U27C | 0.0536
G10C U60C | 0.8
C21G U37G | 0.166
G68C G82A | 0.237
G40A U47C | 1.03
G38C G59U | 0.233
U23G G59C | 0.9
C21G C24U | 0
C63G A70C | 0.415
G74A C75G | 0.17
G10A U37A | 0.0944
U27G C32U | 0.831
U65A G81A | 0.495
G28C C36G | 0.0773
A8G U60C | 1.16
A51C G73U | 0.567
G39A G52A | 0.405
C21A C61A | 0.0511

Variant | self-cleavage
U60G C64A | 1.07
C63G C75A | 0.111
G6U G54C | 0.383
C36G G74A | 0.0779
G11U C62G | 0.151
U27A C84U | 0.795
C63U U79G | 0.54
C30G U69A | 0.148
G17A C33G | 0.0369
G38U C48U | 0.141
U37C G40U | 0.456
C30U U65C | 0.78
C63G G73C | 0.437
G25U G29C | 0.106
G11U U20C | 0.0248
C7A G39C | 0
G35U C57G | 0.415
G50U C62U | 0.95
C49A C86U | 0.795
C18U A45C | 0.0755
C61U C62G | 0.694
C61A A78C | 0.145
U9A C62G | 0.939
C26A C84U | 0.854

Variant | self-cleavage
G29U C86G | 0.0346
C3G C48A | 0.698
C30G G68U | 0.0228
C48U C62G | 0.485
C3A G54A | 0.369
C3U G80U | 0.114
G17C G54C | 0.447
G31C G52C | 0.277
C4A A71C | 0.156
G31C G55A | 0.546
C18G A42U | 0.138
C22U C64U | 0.892
U47A C64G | 0.978
G55U C75U | 0.168
A43G U79C | 0.0941
G40C U47G | 0.173
U20C G80C | 0.106
C64U U65G | 0.784
C26A G39C | 0
G10U U37G | 0.0978
C32G C86A | 0.18
G25U G28C | 0.106
A51G G68U | 0.831
U37A A87U | 0.325

Variant | self-cleavage
C19G C24A | 0.115
G10U C18U | 0.12
G25U A56C | 0.122
A77G A78U | 0.266
G52U C85U | 0.781
C22U U79A | 0.0923
U23G G67A | 0.628
C3G C84U | 0.736
U60G U65G | 0.883
G29A C75U | 0.0339
G25C C61G | 0.175
G67U C86G | 0.945
G68U C85U | 0.972
G2A A51C | 0.203
C7G G54U | 0.219
G40A C64G | 0.531
G5A G29U | 0.0519
C64A A78G | 0.686
C7A C58G | 0.705
G39C A83G | 0.317
U9C G40A | 0.997
G10U C62A | 0.787
C33G A45G | 0.447
